Source: patent US20030195154A1

Molecular target: soluble human myeloproliferative leukemia (MPL) receptor (human) (UniProt P40238)
Test: BIAcore competition: test protein preincubated with 5 nM MPL receptor, passed over Fc-TMP on protein G chip
Set-up: unit not given here

UniProt P40238, sequence (P40238 26-491 limits assumed): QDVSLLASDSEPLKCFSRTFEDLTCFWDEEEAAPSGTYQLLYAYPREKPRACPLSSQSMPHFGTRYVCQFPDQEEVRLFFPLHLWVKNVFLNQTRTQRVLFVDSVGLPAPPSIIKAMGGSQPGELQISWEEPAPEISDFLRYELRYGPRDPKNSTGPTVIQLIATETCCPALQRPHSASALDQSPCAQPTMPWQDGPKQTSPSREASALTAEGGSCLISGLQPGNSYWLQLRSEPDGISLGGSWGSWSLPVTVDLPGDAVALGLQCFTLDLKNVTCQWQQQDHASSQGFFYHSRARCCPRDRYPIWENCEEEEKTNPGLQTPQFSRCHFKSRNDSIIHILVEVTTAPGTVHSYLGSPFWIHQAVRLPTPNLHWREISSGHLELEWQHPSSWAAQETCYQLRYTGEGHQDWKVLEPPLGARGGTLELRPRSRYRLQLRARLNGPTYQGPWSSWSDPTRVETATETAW

- affinity: 3.28 to 5.37
Substance: TMP sequence fused to the carboxy-terminus of human immunoglobulin Fc (Fc-TMP) (Fc fusion)
